Residue numbers refer to the chain shown, from its start. Names and notes keep the numbering of the source.
T1: PUF4 RNA-binding domain (Saccharomyces cerevisiae, UniProt P25339 537-888)
T1 sequence: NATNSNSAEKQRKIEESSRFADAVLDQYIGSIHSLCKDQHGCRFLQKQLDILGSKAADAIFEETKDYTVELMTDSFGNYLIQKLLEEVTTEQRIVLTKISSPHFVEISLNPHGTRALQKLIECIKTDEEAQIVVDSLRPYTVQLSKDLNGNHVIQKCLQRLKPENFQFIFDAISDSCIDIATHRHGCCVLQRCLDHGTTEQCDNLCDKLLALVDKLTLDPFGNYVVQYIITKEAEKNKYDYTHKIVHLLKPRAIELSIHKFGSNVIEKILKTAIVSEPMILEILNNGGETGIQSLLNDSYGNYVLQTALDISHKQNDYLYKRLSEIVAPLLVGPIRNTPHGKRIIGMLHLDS

B1: Ib_S2_P3E.1_K3.1_C3.1_H3.1_[A4G]_A3.1_F3.1_[A8T]_T3.1 (ssRNA)
RNA: UUUGAUUAAUAUGAUAUCGUUCUUUCUUGUGUAUUUUCUUUCUCGAUAUCAUAUUAAUCUUU
B2: Ia_S2_P3E.1_K3.1_C3.1_H3.1_[G2C]_A3.1_F3.1_T3.1 (ssRNA)
RNA: B1 RNA with G29C, G31A, U35A
B3: Ib_S2_P3E.1_K3.1_C3.1_H3.1_A3.1_[T5C]_F3.1_[T7C]_T3.1 (ssRNA)
RNA: B1 RNA with G31A, U32C, U34C, U35A
B4: Ie_S2_P3E.2_K3.1_C3.2_H3.1_[+1T]_A3.1_F3.1_T3.2 (ssRNA)
RNA: UUUGAUUAAUAUGAUAUCGUUCUUUCUCUUUGUAUAUAUAUUCUUUCUCGAUAUCAUAUUAAUCUUU
B5: Ie_S2_P3E.2_K3.1_C3.2_[+-2CC]_H3.1_A3.1_F3.1_T3.2 (ssRNA)
RNA: UUUGAUUAAUAUGAUAUCGUUCUUUCUCCCUUGUAUAUAUAUUCUUUCUCGAUAUCAUAUUAAUCUUU
B6: Ie_S2_P3E.2_K3.1_C3.2_H3.1_[+1TT]_A3.1_F3.1_T3.2 (ssRNA)
RNA: B5 RNA with C29U, C30U
B7: Ie_S2_P3E.2_K3.1_C3.2_[+-2CCC]_H3.1_A3.1_F3.1_T3.2 (ssRNA)
RNA: UUUGAUUAAUAUGAUAUCGUUCUUUCUCCCCUUGUAUAUAUAUUCUUUCUCGAUAUCAUAUUAAUCUUU
B8: Ie_S2_P3E.2_K3.1_C3.2_[+-2CCT]_H3.1_A3.1_F3.1_T3.2 (ssRNA)
RNA: B7 RNA with C31U
B9: Ie_S2_P3E.2_K3.1_C3.2_[+-2CTC]_H3.1_A3.1_F3.1_T3.2 (ssRNA)
RNA: B7 RNA with C30U
B10: Ie_S2_P3E.2_K3.1_C3.2_[+-2TCC]_H3.1_A3.1_F3.1_T3.2 (ssRNA)
RNA: B7 RNA with C29U
B11: Ie_S2_P3E.2_K3.1_C3.2_H3.1_[+1CTT]_A3.1_F3.1_T3.2 (ssRNA)
RNA: B7 RNA with C29U, C30U
B12: Ie_S2_P3E.2_K3.1_C3.2_[+-2TCT]_H3.1_A3.1_F3.1_T3.2 (ssRNA)
RNA: B7 RNA with C29U, C31U
B13: Ic_S2_P3E.1_K3.1_C3.1_H3.1_A3.1_[T5A]_F3.1_[T7C]_T3.1 (ssRNA)
RNA: B1 RNA with G31A, U32A, U34C, U35A
B14: Ie_S2_P3E.2_K3.1_C3.2_H3.1_[+1TTT]_A3.1_F3.1_T3.2 (ssRNA)
RNA: B7 RNA with C29U, C30U, C31U
B15: Ie_S2_P3E.2_K3.1_C3.2_[+-2CTCT]_H3.1_A3.1_F3.1_T3.2 (ssRNA)
RNA: UUUGAUUAAUAUGAUAUCGUUCUUUCUCCUCUUUGUAUAUAUAUUCUUUCUCGAUAUCAUAUUAAUCUUU
B16: Ie_S2_P3E.2_K3.1_C3.2_[+-1CTCT]_H3.1_A3.1_F3.1_T3.2 (ssRNA)
RNA: B15 RNA with C29U, U30C, C31U, U32C
B17: Ie_S2_P3E.2_K3.1_C3.2_[+-2CCTC]_H3.1_A3.1_F3.1_T3.2 (ssRNA)
RNA: B15 RNA with U30C, C31U, U32C
B18: Ie_S2_P3E.2_K3.1_C3.2_[+-2TTCC]_H3.1_A3.1_F3.1_T3.2 (ssRNA)
RNA: B15 RNA with C29U, U32C
B19: Ie_S2_P3E.2_K3.1_C3.2_[+-2CCCT]_H3.1_A3.1_F3.1_T3.2 (ssRNA)
RNA: B15 RNA with U30C
B20: Ie_S2_P3E.2_K3.1_C3.2_[+-2TCTCT]_H3.1_A3.1_F3.1_T3.2 (ssRNA)
RNA: UUUGAUUAAUAUGAUAUCGUUCUUUCUCUCUCUUUGUAUAUAUAUUCUUUCUCGAUAUCAUAUUAAUCUUU
B21: Ie_S2_P3E.2_K3.1_C3.2_[+-2CCTCT]_H3.1_A3.1_F3.1_T3.2 (ssRNA)
RNA: B20 RNA with U29C
B22: Ie_S2_P3E.2_K3.1_C3.2_[+-2CCCTT]_H3.1_A3.1_F3.1_T3.2 (ssRNA)
RNA: B20 RNA with U29C, U31C, C32U
B23: Ie_S2_P3E.2_K3.1_C3.2_[+-1CC]_H3.1_A3.1_F3.1_T3.2 (ssRNA)
RNA: B5 RNA with C29U, U31C
B24: Ib_S2_P3E.1_K3.1_C3.1_H3.1_A3.1_[T5C]_F3.1_[T7A]_T3.1 (ssRNA)
RNA: B1 RNA with G31A, U32C, U34A, U35A
B25: Ie_S2_P3E.2_K3.1_C3.2_[+-1CCC]_H3.1_A3.1_F3.1_T3.2 (ssRNA)
RNA: B7 RNA with C29U, U32C
B26: Ie_S2_P3E.2_K3.1_C3.2_H3.1_[+1CCT]_A3.1_F3.1_T3.2 (ssRNA)
RNA: B7 RNA with C29U, C30U, U32C
B27: Ie_S2_P3E.2_K3.1_C3.2_H3.1_[+1TCT]_A3.1_F3.1_T3.2 (ssRNA)
RNA: B7 RNA with C29U, C30U, C31U, U32C
B28: Ie_S2_P3E.2_K3.1_C3.2_H3.1_[+1CTCT]_A3.1_F3.1_T3.2 (ssRNA)
RNA: B15 RNA with C29U, U33C
B29: Ie_S2_P3E.2_K3.1_C3.2_[+-1CCTC]_H3.1_A3.1_F3.1_T3.2 (ssRNA)
RNA: B15 RNA with C29U, U30C, U33C
B30: Ie_S2_P3E.2_K3.1_C3.2_[+-1TTCC]_H3.1_A3.1_F3.1_T3.2 (ssRNA)
RNA: B15 RNA with C29U, C31U, U32C, U33C
B31: Ie_S2_P3E.2_K3.1_C3.2_[+-1TCTCT]_H3.1_A3.1_F3.1_T3.2 (ssRNA)
RNA: B20 RNA with C30U, U31C, C32U, U33C
B32: Ie_S2_P3E.2_K3.1_C3.2_[+-1CCTCT]_H3.1_A3.1_F3.1_T3.2 (ssRNA)
RNA: B20 RNA with U31C, C32U, U33C
B33: Ie_S2_P3E.2_K3.1_C3.2_[+-1TTCCT]_H3.1_A3.1_F3.1_T3.2 (ssRNA)
RNA: B20 RNA with C30U, U33C
B34: Ie_S2_P3E.2_K3.1_C3.2_[+-1CCCTT]_H3.1_A3.1_F3.1_T3.2 (ssRNA)
RNA: B20 RNA with U31C

Biological target: T1, PUF4 RNA-binding domain
Experiment: Mg; RNA-MaP; 20 mM Na-HEPES pH 7.4, 30 mM KOAc, 0.75 mM MgCl2, 0.1% Tween-20, 5% glycerol, 0.1 mg/mL BSA, 2 mM DTT; 25 C; 0.0125-409.6 nM protein
Settings: tags: N-His6-TEV cleaved; C-SNAP kept, Cy3B-labelled; label: tethered on chip by stalled RNA polymerase

| Binder | Kd [nM] |
| --- | --- |
| UCUCUUUGUAUUAUCCCUUAUCUCUU (ssRNA) [Ie_S1_P5E.1_K5.1_C5.1_H5.1_A5.1_F5.1_[+8CCCT]_T5.1] | 33.5 |
| UCUCUUUGUAUUAUCUCUCUAUCUCUU (ssRNA) [Ie_S1_P5E.1_K5.1_C5.1_H5.1_A5.1_F5.1_[+8CTCTC]_T5.1] | 21.4 |
| UCUCUUUGUAUUAUUCUCUUAUCUCUU (ssRNA) [Ie_S1_P5E.1_K5.1_C5.1_H5.1_A5.1_F5.1_[+8TCTCT]_T5.1] | 16.8 |
| UCUCUUUGUAUUAUCCUCUUAUCUCUU (ssRNA) [Ie_S1_P5E.1_K5.1_C5.1_H5.1_A5.1_F5.1_[+8CCTCT]_T5.1] | 23.1 |
| UCUCUUUGUAUUAUUUCCUUAUCUCUU (ssRNA) [Ie_S1_P5E.1_K5.1_C5.1_H5.1_A5.1_F5.1_[+8TTCCT]_T5.1] | 17.1 |
| UCUCUUUGUAUUAUCCCUUUAUCUCUU (ssRNA) [Ie_S1_P5E.1_K5.1_C5.1_H5.1_A5.1_F5.1_[+8CCCTT]_T5.1] | 23.1 |
| UCUCUUUGUAUUAUUCAUCUCUU (ssRNA) [Ie_S1_P5E.1_K5.1_C5.1_H5.1_A5.1_F5.1_[+9C]_T5.1] | 25.3 |
| UCUCUUUGUAUUAUUUCCAUCUCUU (ssRNA) [Ie_S1_P5E.1_K5.1_C5.1_H5.1_A5.1_F5.1_[+9TCC]_T5.1] | 20.4 |
| UCUCUUUGUAUUAUUUCUCAUCUCUU (ssRNA) [Ie_S1_P5E.1_K5.1_C5.1_H5.1_A5.1_F5.1_[+9TCTC]_T5.1] | 16.3 |
| UCUCUUUGUAUUAUUUUCCAUCUCUU (ssRNA) [Ie_S1_P5E.1_K5.1_C5.1_H5.1_A5.1_F5.1_[+9TTCC]_T5.1] | 19.4 |
| B1 | 8.99 |
| UCUCUUUGUAUUAUUCCCUAUCUCUU (ssRNA) [Ie_S1_P5E.1_K5.1_C5.1_H5.1_A5.1_F5.1_[+9CCCT]_T5.1] | 16.2 |
| UCUCUUUGUAUUAUUUCUCUAUCUCUU (ssRNA) [Ie_S1_P5E.1_K5.1_C5.1_H5.1_A5.1_F5.1_[+9TCTCT]_T5.1] | 14 |
| UCUCUUUGUAUUAUUCCUCUAUCUCUU (ssRNA) [Ie_S1_P5E.1_K5.1_C5.1_H5.1_A5.1_F5.1_[+9CCTCT]_T5.1] | 14.3 |
| UCUCUUUGUAUUAUUUUCCUAUCUCUU (ssRNA) [Ie_S1_P5E.1_K5.1_C5.1_H5.1_A5.1_F5.1_[+9TTCCT]_T5.1] | 22.3 |
| UCUCUUUGUAUUAUUCCCUUAUCUCUU (ssRNA) [Ie_S1_P5E.1_K5.1_C5.1_H5.1_A5.1_F5.1_[+9CCCTT]_T5.1] | 17.6 |
| UCUCUUUGUAUUAUUAUCUCUCUU (ssRNA) [Ie_S1_P5E.1_K5.1_C5.1_H5.1_A5.1_F5.1_[+10TC]_T5.1] | 4.34 |
| UCUCUUUGUAUUAUUAUUUCUCUU (ssRNA) [Ie_S1_P5E.1_K5.1_C5.1_H5.1_A5.1_F5.1_[+10TT]_T5.1] | 6.42 |
| UCUCUUUGUAUUAUUAUCCUCUCUU (ssRNA) [Ie_S1_P5E.1_K5.1_C5.1_H5.1_A5.1_F5.1_[+10TCC]_T5.1] | 6.07 |
| UCUCUUUGUAUUAUUAUUCUCUCUU (ssRNA) [Ie_S1_P5E.1_K5.1_C5.1_H5.1_A5.1_F5.1_[+10TTC]_T5.1] | 5.81 |
| UCUCUUUGUAUUAUUAUUCCUCUCUU (ssRNA) [Ie_S1_P5E.1_K5.1_C5.1_H5.1_A5.1_F5.1_[+10TTCC]_T5.1] | 4.65 |
| B2 | 473 |
| B3 | 22.4 |
| UCUCUUUGUAUUAUUAUCUCUUCUCUU (ssRNA) [Ie_S1_P5E.1_K5.1_C5.1_H5.1_A5.1_F5.1_[+10TCTCT]_T5.1] | 8.17 |
| B4 | 1.11 |
| B5 | 1.07 |
| B6 | 1.22 |
| B7 | 0.969 |

| Binder | Kd [nM] |
| --- | --- |
| B8 | 1.07 |
| B9 | 0.846 |
| B10 | 0.933 |
| B11 | 1.32 |
| B12 | 1.02 |
| B13 | 327 |
| B14 | 1.33 |
| B15 | 1.08 |
| B16 | 0.703 |
| B17 | 0.683 |
| B18 | 0.819 |
| B19 | 0.468 |
| B20 | 1.24 |
| B21 | 1.06 |
| B22 | 0.802 |
| B23 | 0.923 |
| B24 | 58.4 |
| B25 | 0.662 |
| B26 | 1.05 |
| B27 | 1.12 |
| B28 | 0.882 |
| B29 | 0.786 |
| B30 | 1.28 |
| B31 | 1.04 |
| B32 | 0.967 |
| B33 | 0.987 |
| B34 | 0.572 |

Reference: publication PMC9352680, “A comprehensive thermodynamic model for RNA binding by the Saccharomyces cerevisiae Pumilio protein PUF4”
